pKd: −log10 of the molar value. Like-named read-outs stand apart in the source and are kept apart here.

This note sets out measurements from publication PMC5923308.

The target of assay [1] is crotoxin basic subunit CB (phospholipase A2) from Crotalus durissus terrificus (Crotalus durissus terrificus) (UniProt P0CG56). The experiment in a line: ELISA.
For assay [2] the target is unchanged. The experiment in a line: ELISA. This is another data set of the same source.
The target of assay [3] is crotoxin (CTX) from Crotalus durissus terrificus venom, heterodimer of CA and CB (Crotalus durissus terrificus).
The target of assay [4] is crotoxin basic subunit CB (phospholipase A2) from Crotalus durissus terrificus (Crotalus durissus terrificus) (UniProt P0CG56).
Assay [5] addresses crotoxin (CTX) from Crotalus durissus terrificus venom, heterodimer of CA and CB (Crotalus durissus terrificus). The experiment in a line: SPR; Biacore T200; CTX immobilised on a CM5 chip by EDC/NHS coupling (10 mM acetate, pH 5.5); VHHs injected at 2.5 to 0.002 uM in HBS-p (10 mM HEPES, 150 mM NaCl, 3.4 mM EDTA, 0.005% Tween 20, pH 7.4); 30 uL/min, 25 °C; 1:1 Langmuir model.
Assay [6] has the same target. This is another data set of the same source.
For assay [7], the target named is crotoxin basic subunit CB (phospholipase A2) from Crotalus durissus terrificus (Crotalus durissus terrificus) (UniProt P0CG56). The source holds these as a separate data set.
Assay [8] has as its target crotoxin (CTX) from Crotalus durissus terrificus venom, heterodimer of CA and CB (Crotalus durissus terrificus). Kind of assay: SPR; Biacore T200; CTX amine-coupled on a CM5 chip; VHH 2.5 to 0.002 µM in HBS-p (10 mM HEPES, 150 mM NaCl, 3.4 mM EDTA, 0.005% Tween 20, pH 7.4); 30 µL/min, 25 °C; 1:1 Langmuir model.

VHH KF498604 (clone Cb-16) gave a % of the unheated sample's ELISA signal after 1 h at 85 °C in assay [1] of 85%. In assay [2], this substance showed a % of the unheated sample's ELISA signal after 1 h at 85 °C greater than 75% and a % of the unheated sample's ELISA signal after 1 h at 95 °C of 100%. The inhibition of phospholipase activity on acyl-NBD-PC fluorescent phospholipids, toxin pre-incubated with VHH 30 min at 37 °C, toxin/VHH 1:5 to 1:40 (w/w) in assay [3] was determined as 80%. The inhibition of phospholipase activity on acyl-NBD-PC fluorescent phospholipids, toxin pre-incubated with VHH 30 min at 37 °C, toxin/VHH 1:5 to 1:40 (w/w) in assay [4] was 80%. In assay [5], this substance had a koff of 0.00554 s⁻¹ and a kon of 68100 M⁻¹ s⁻¹. Further, the reduction of plasma creatine kinase in Swiss mice 3 h after i.m. injection of CTX (1.5 µg) pre-incubated with VHH at 1:10, 1:20 and 1:40 (w/w) (46%, 63%, 78%), against CTX alone in assay [6] was 78.8%. The reduction of LDH release from murine C2C12 myotubes after 3 h with CB (20 µg) pre-incubated with VHH at 1:2.5 (w/w), against CB alone in assay [7] was 59.3%. In assay [8], this substance gave a negative-log Kd (pKd) of 7.09.
